Biological target: the molecule itself
Assay: SEC-MALS; inhibitor and ligand mixed at molar ratios 5:1 to 1:5 (20 µM and 100 µM), 12 h at ambient temperature; free proteins injected separately; Superose 12 10/300 GL, 10 mM phosphate, 500 mM NaCl, pH 7.0, 0.3 mL/min

B1: PlGF-2 (ligand, UniProt P49763-3 19-170, looked up)
chain: LPAVPPQQWALSAGNGSSEVEVVPFQEVWGRSYCRALERLVDVVSEYPSEVEHMFSPSCVSLLRCTGCCGDENLHCVPVETANVTMQLLKIRSGDRPSYVELTFSQHVRCECRPLREKMKPERRRPKGRGKRRREKQRPTDCHLCGDAVPRR
notes: PlGF-2, isoform of placental growth factor; Dimer (~42 kDa by SEC-MALLS); also called placental growth factor
stoichiometry N: 2
